Here are results for 14 molecules from US20200131230A1 (published 2020).

Where two headings read alike, the source gives them in different places. Positions of bridges follow the written chain, without caps; N, C: chain ends. Non-standard residues stand in square brackets, D forms with d. 2Nal = N[C@@H](Cc1ccc2ccccc2c1)C(=O)O; Pen = CC(C)(S)[C@H](N)C(=O)O; Phg = N[C@H](C(=O)O)c1ccccc1; Nle = CCCC[C@H](N)C(=O)O; HCt = not defined here; MS = not defined here

Assay [1] concerns the target T1, Thrombospondin human platelet (Calbiochem, 605225) (human, UniProt P07996 19-1170). The experiment in a line: cell-based or functional assay.
Assay [2] addresses T1, Thrombospondin human platelet …. The experiment in a line: cell-based or functional assay. This is another data set of the same source.

T1 sequence (P07996 19-1170 limits assumed): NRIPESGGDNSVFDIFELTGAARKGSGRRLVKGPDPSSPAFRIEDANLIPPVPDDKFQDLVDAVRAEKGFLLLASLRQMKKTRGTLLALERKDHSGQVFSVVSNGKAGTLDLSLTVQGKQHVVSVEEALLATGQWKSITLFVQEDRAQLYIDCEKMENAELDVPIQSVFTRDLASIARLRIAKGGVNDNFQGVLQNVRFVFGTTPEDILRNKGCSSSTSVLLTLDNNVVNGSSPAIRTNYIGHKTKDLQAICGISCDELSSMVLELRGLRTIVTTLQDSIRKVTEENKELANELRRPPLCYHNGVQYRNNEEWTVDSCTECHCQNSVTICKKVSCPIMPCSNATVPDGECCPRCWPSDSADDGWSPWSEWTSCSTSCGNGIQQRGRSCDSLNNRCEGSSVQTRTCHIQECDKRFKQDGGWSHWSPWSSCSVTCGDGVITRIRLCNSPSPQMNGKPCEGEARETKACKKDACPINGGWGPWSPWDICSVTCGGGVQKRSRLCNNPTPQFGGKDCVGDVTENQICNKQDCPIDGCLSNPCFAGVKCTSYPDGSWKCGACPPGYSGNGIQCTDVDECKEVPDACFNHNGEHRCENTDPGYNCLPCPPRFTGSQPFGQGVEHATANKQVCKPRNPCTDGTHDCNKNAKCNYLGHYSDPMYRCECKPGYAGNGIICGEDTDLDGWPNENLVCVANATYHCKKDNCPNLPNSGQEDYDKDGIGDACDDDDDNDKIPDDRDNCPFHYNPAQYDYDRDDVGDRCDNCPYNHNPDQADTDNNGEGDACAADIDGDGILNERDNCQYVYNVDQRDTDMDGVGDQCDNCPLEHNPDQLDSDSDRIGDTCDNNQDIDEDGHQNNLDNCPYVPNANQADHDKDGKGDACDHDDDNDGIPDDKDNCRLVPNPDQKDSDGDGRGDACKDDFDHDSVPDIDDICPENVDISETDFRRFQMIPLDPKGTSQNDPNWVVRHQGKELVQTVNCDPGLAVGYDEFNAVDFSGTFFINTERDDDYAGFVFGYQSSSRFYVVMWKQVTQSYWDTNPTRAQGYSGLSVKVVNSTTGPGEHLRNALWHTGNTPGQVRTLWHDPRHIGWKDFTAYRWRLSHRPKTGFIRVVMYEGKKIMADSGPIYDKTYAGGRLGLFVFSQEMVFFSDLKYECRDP

B1: Compound 82 (peptide)
peptide: {CH2CO}-L[2Nal]ISGRDW[Nle]KWVC-NH2
modifications: thioether N-13
SMILES: CCCC[C@@H]1NC(=O)[C@H](Cc2c[nH]c3ccccc23)NC(=O)[C@H](CC(=O)O)NC(=O)[C@H](CCCNC(=N)N)NC(=O)CNC(=O)[C@H](CO)NC(=O)[C@H]([C@@H](C)CC)NC(=O)[C@H](Cc2ccc3ccccc3c2)NC(=O)[C@H](CC(C)C)NC(=O)CSC[C@@H](C(N)=O)NC(=O)[C@H](C(C)C)NC(=O)[C@H](Cc2c[nH]c3ccccc23)NC(=O)[C@H](CCCCN)NC1=O
As to B1, in assay [1], the “Cell adhesion IC50” value was found to be 29.9 nM.

B2: Compound 89 (peptide)
peptide: {CH2CO}-W[2Nal]ISGRDW[Nle]KWVC-NH2
modifications: thioether N-13
SMILES: CCCC[C@@H]1NC(=O)[C@H](Cc2c[nH]c3ccccc23)NC(=O)[C@H](CC(=O)O)NC(=O)[C@H](CCCNC(=N)N)NC(=O)CNC(=O)[C@H](CO)NC(=O)[C@H]([C@@H](C)CC)NC(=O)[C@H](Cc2ccc3ccccc3c2)NC(=O)[C@H](Cc2c[nH]c3ccccc23)NC(=O)CSC[C@@H](C(N)=O)NC(=O)[C@H](C(C)C)NC(=O)[C@H](Cc2c[nH]c3ccccc23)NC(=O)[C@H](CCCCN)NC1=O
Regarding B2, the “Cell adhesion IC50” value in assay [1] stood at 23.8 nM.
For the molecule {CH2CO}-[2Nal]ISG[3Hyp]NW[Nle]HWVC-NH2 (thioether N-12) [Compound 69], the “Cell adhesion IC50” value in assay [2] came out at 27.9 nM.

B3: Compound 103 (peptide)
peptide: {CH2CO}-[2Nal]RSGKNW[Nle][Phg]WVC-NH2
modifications: thioether N-12
SMILES: CCCC[C@@H]1NC(=O)[C@H](Cc2c[nH]c3ccccc23)NC(=O)[C@H](CC(N)=O)NC(=O)[C@H](CCCCN)NC(=O)CNC(=O)[C@H](CO)NC(=O)[C@H](CCCNC(=N)N)NC(=O)[C@H](Cc2ccc3ccccc3c2)NC(=O)CSC[C@@H](C(N)=O)NC(=O)[C@H](C(C)C)NC(=O)[C@H](Cc2c[nH]c3ccccc23)NC(=O)[C@H](c2ccccc2)NC1=O
With B3, the “Cell adhesion IC50” value in assay [1] is 12.4 nM.
Consider {CH2CO}-[2Nal]ISG[MS]DW[Nle]KWVC-NH2 (thioether N-12; reading uncertain) [Compound 67], for which the “Cell adhesion IC50” value in assay [2] came out at 12.7 nM.

B4: Compound 65 (peptide)
peptide: {CH2CO}-FISGRNWVTWVC-NH2
modifications: thioether N-12
SMILES: CC[C@H](C)[C@@H]1NC(=O)[C@H](Cc2ccccc2)NC(=O)CSC[C@@H](C(N)=O)NC(=O)[C@H](C(C)C)NC(=O)[C@H](Cc2c[nH]c3ccccc23)NC(=O)[C@H]([C@@H](C)O)NC(=O)[C@H](C(C)C)NC(=O)[C@H](Cc2c[nH]c3ccccc23)NC(=O)[C@H](CC(N)=O)NC(=O)[C@H](CCCNC(=N)N)NC(=O)CNC(=O)[C@H](CO)NC1=O
On to B4, for which the “Cell adhesion IC50” value in assay [2] came to 30.6 nM.
As to {CH2CO}-[2Nal]ISG[HCt]DW[Nle]KWVC-NH2 (thioether N-12; reading uncertain) [Compound 74], the “Cell adhesion IC50” value in assay [2] was found to be 20.7 nM.

B5: Compound 66 (peptide)
peptide: {CH2CO}-FISGKNWVSWVC-NH2
modifications: thioether N-12
SMILES: CC[C@H](C)[C@@H]1NC(=O)[C@H](Cc2ccccc2)NC(=O)CSC[C@@H](C(N)=O)NC(=O)[C@H](C(C)C)NC(=O)[C@H](Cc2c[nH]c3ccccc23)NC(=O)[C@H](CO)NC(=O)[C@H](C(C)C)NC(=O)[C@H](Cc2c[nH]c3ccccc23)NC(=O)[C@H](CC(N)=O)NC(=O)[C@H](CCCCN)NC(=O)CNC(=O)[C@H](CO)NC1=O
For B5, the “Cell adhesion IC50” value in assay [2] was found to be 33.8 nM.

B6: Compound 100 (peptide)
peptide: {CH2CO}-[2Nal]RSGHNW[Nle]VWVC-NH2
modifications: thioether N-12
SMILES: CCCC[C@@H]1NC(=O)[C@H](Cc2c[nH]c3ccccc23)NC(=O)[C@H](CC(N)=O)NC(=O)[C@H](Cc2c[nH]cn2)NC(=O)CNC(=O)[C@H](CO)NC(=O)[C@H](CCCNC(=N)N)NC(=O)[C@H](Cc2ccc3ccccc3c2)NC(=O)CSC[C@@H](C(N)=O)NC(=O)[C@H](C(C)C)NC(=O)[C@H](Cc2c[nH]c3ccccc23)NC(=O)[C@H](C(C)C)NC1=O
B6: the “Cell adhesion IC50” value in assay [1] was found to be 19.5 nM.

B7: Compound 79 (peptide)
peptide: {CH2CO}-[2Nal]ISGRDW[Nle]KWV[Pen]-NH2
modifications: thioether N-12
SMILES: CCCC[C@@H]1NC(=O)[C@H](Cc2c[nH]c3ccccc23)NC(=O)[C@H](CC(=O)O)NC(=O)[C@H](CCCNC(=N)N)NC(=O)CNC(=O)[C@H](CO)NC(=O)[C@H]([C@@H](C)CC)NC(=O)[C@H](Cc2ccc3ccccc3c2)NC(=O)CSC(C)(C)[C@@H](C(N)=O)NC(=O)[C@H](C(C)C)NC(=O)[C@H](Cc2c[nH]c3ccccc23)NC(=O)[C@H](CCCCN)NC1=O
B7: the “Cell adhesion IC50” value in assay [1] is 15 nM.

B8: Compound 87 (peptide)
peptide: {CH2CO}-F[2Nal]ISGRDW[Nle]KWVC-NH2
modifications: thioether N-13
SMILES: CCCC[C@@H]1NC(=O)[C@H](Cc2c[nH]c3ccccc23)NC(=O)[C@H](CC(=O)O)NC(=O)[C@H](CCCNC(=N)N)NC(=O)CNC(=O)[C@H](CO)NC(=O)[C@H]([C@@H](C)CC)NC(=O)[C@H](Cc2ccc3ccccc3c2)NC(=O)[C@H](Cc2ccccc2)NC(=O)CSC[C@@H](C(N)=O)NC(=O)[C@H](C(C)C)NC(=O)[C@H](Cc2c[nH]c3ccccc23)NC(=O)[C@H](CCCCN)NC1=O
As for B8, the “Cell adhesion IC50” value in assay [1] was 15.8 nM.

B9: Compound 85 (peptide)
peptide: {CH2CO}-T[2Nal]ISGRDW[Nle]KWVC-NH2
modifications: thioether N-13
SMILES: CCCC[C@@H]1NC(=O)[C@H](Cc2c[nH]c3ccccc23)NC(=O)[C@H](CC(=O)O)NC(=O)[C@H](CCCNC(=N)N)NC(=O)CNC(=O)[C@H](CO)NC(=O)[C@H]([C@@H](C)CC)NC(=O)[C@H](Cc2ccc3ccccc3c2)NC(=O)[C@H]([C@@H](C)O)NC(=O)CSC[C@@H](C(N)=O)NC(=O)[C@H](C(C)C)NC(=O)[C@H](Cc2c[nH]c3ccccc23)NC(=O)[C@H](CCCCN)NC1=O
For the molecule B9, the “Cell adhesion IC50” value in assay [1] stood at 15.5 nM.

B10: Compound 94 (peptide)
peptide: {CH2CO}-F[2Nal]ISGKDW[Nle]RWVC-NH2
modifications: thioether N-13
SMILES: CCCC[C@@H]1NC(=O)[C@H](Cc2c[nH]c3ccccc23)NC(=O)[C@H](CC(=O)O)NC(=O)[C@H](CCCCN)NC(=O)CNC(=O)[C@H](CO)NC(=O)[C@H]([C@@H](C)CC)NC(=O)[C@H](Cc2ccc3ccccc3c2)NC(=O)[C@H](Cc2ccccc2)NC(=O)CSC[C@@H](C(N)=O)NC(=O)[C@H](C(C)C)NC(=O)[C@H](Cc2c[nH]c3ccccc23)NC(=O)[C@H](CCCNC(=N)N)NC1=O
For B10, the “Cell adhesion IC50” value in assay [1] was 25.1 nM.

B11: Compound 98 (peptide)
peptide: {CH2CO}-[2Nal]RSGKNWVVWVC-NH2
modifications: thioether N-12
SMILES: CC(C)[C@@H]1NC(=O)[C@H](Cc2c[nH]c3ccccc23)NC(=O)[C@H](C(C)C)NC(=O)[C@H](C(C)C)NC(=O)[C@H](Cc2c[nH]c3ccccc23)NC(=O)[C@H](CC(N)=O)NC(=O)[C@H](CCCCN)NC(=O)CNC(=O)[C@H](CO)NC(=O)[C@H](CCCNC(=N)N)NC(=O)[C@H](Cc2ccc3ccccc3c2)NC(=O)CSC[C@@H](C(N)=O)NC1=O
For B11, the “Cell adhesion IC50” value in assay [1] amounted to 3.9 nM.
